The values that follow come from paper PMC7483523, “Affinity of Skp to OmpC revealed by single-molecule detection” (Scientific Reports, 2020).

By stoichiometry N is commonly meant a count of units in the complex or per binding partner.

Numbering of substitutions follows the chain as printed. Numbers in names are those of the source.

Series [1] addresses T1, OmpC G8C-D335C labelled with AF555 and AF647 (UniProt P06996 22-367, G8C | D335C, fluorescent dyes AF555 and AF647 (maleimide) on the cysteines).
T1 construct: OmpC, outer membrane protein; plasmid pET28a-ompC as template; Unfolded OmpC, diluted from urea; Residue numbers fit the mature protein without its signal peptide (surmised); also called dual-labelled OmpC; intramolecular labelled OmpC G8C-D335C; source: E. coli BL21(DE3), purified (Ni-NTA) in 8 M urea; diluted from 8 M urea into the sample
T1 sequence (looked up): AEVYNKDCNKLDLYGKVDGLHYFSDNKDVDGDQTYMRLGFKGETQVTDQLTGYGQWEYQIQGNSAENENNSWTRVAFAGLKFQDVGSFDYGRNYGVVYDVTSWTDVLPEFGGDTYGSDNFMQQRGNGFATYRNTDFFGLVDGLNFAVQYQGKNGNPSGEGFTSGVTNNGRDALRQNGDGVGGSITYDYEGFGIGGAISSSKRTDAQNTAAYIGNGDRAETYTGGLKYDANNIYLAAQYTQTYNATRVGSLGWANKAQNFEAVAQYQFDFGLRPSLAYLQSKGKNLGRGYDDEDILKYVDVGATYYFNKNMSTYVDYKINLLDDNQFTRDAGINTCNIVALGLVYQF
As to the kind of experiment: pscFCS (portion-selectively-chosen FCS on smFRET subpopulations); 50 pM dual-labelled OmpC diluted from 8 M urea into wild-type Skp at subnanomolar to nanomolar concentrations, buffer C, 0.02% tween 20, 23 °C; diffusion times of bound and unbound OmpC compared in the same sample. The following applies: both partners purified.

Series [2] concerns the molecule itself. Description: fluorescence correlation spectroscopy (FCS); trimer to monomers; 0.4 nM Skp D128C-Cy3B as tracer in wild-type Skp of various concentrations, denatured by 4 M urea and diluted 100-fold in buffer C (50 mM PB, 100 mM NaCl, pH 7.0), 0.02% tween 20, 23 °C; effective stoichiometric number from the diffusion time fitted against [Skp]0.
Series [3] addresses T2, OmpC·Skp3 complex (dual-labelled OmpC G8C-D335C with wild-type Skp) (UniProt P06996 22-367; P0AEU7 21-161, G8C | D335C, fluorescent dyes AF555 and AF647 (maleimide) on the cysteines).
T2 construct: OmpC, as the chain of m4; Skp, as the chain of m1; source: formed in the sample from purified urea-denatured OmpC G8C-D335C (50 pM) and purified wild-type Skp; copies: 1 + 3
T2 sequence 1: T1 sequence (looked up)
T2 sequence 2: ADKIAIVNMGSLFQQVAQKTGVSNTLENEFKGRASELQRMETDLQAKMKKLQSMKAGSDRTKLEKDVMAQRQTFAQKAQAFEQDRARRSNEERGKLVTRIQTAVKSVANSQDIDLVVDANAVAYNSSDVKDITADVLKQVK
Description: smFRET (intramolecular, on dual-labelled OmpC); 50 pM dual-labelled OmpC diluted from 8 M urea into micromolar wild-type Skp, buffer C, 0.02% tween 20, 23 °C; peak areas of Eapp 0.1 and 0.3 fitted against [Skp]0. The following applies: both partners purified.

Series [4] has as its target T3, OmpC G8C-I232C, dual-labelled (UniProt P06996 22-367, G8C | I232C, dual-labelled with fluorescent dyes on the cysteines (dyes not named for this mutant)).
T3 construct: OmpC, outer membrane protein; plasmid pET28a-ompC as template; also called OmpC double mutant; source: E. coli BL21(DE3), purified (Ni-NTA) in 8 M urea
T3 sequence (looked up): T1 sequence (looked up) with I232C, C335D
The description is as above. The following applies: both partners purified.

The target of series [5] is T4, OmpC G8C-L139C, dual-labelled (UniProt P06996 22-367, G8C | L139C, dual-labelled with fluorescent dyes on the cysteines (dyes not named for this mutant)).
T4 construct: OmpC, outer membrane protein; plasmid pET28a-ompC as template; also called OmpC double mutant; source: E. coli BL21(DE3), purified (Ni-NTA) in 8 M urea
T4 sequence (looked up): T1 sequence (looked up) with L139C, C335D
The series is described as above. Conditions: both partners purified.

The target of series [6] is T5, OmpC G8C-AF555 with an AviTag on the C-terminus, biotinylated (UniProt P06996 22-367, G8C, AF555 (maleimide) on the cysteine of G8C; biotin on the AviTag's lysine side chain).
T5 construct: OmpC, outer membrane protein; plasmid pET28a-ompC as template; Held on a streptavidin surface by the biotin of the AviTag; also called biotinylated OmpC; source: E. coli BL21(DE3), purified (Ni-NTA) in 8 M urea; biotinylated by BirA
T5 sequence (looked up): T1 sequence (looked up) with C335D
As to the kind of experiment: TIRF colocalization (single molecule); apparent; biotinylated OmpC G8C-AF555 (50 pM) immobilised on a streptavidin coverslip; Skp D128C-AF647 from 500 pM to 8 nM in buffer C, 0.02% tween 20, oxygen scavenging system, 23 °C; alternating laser excitation 532 and 640 nm. The following applies: both partners purified.

B1: wild-type Skp (natural protein)
chain: T2 sequence 2
notes: Skp, periplasmic chaperone of gram-negative bacteria; plasmid pET28a-skp; In equilibrium between monomer and homotrimer (Skp3); concentrations are counted in Skp monomer; The printed mass of the labelled His-tagged mutant (18.8 kD) and the residue number D128 fit the mature protein without its signal peptide (surmised); also called Skp3 (trimer); Skp monomer; source: E. coli BL21(DE3) pLysS, …
Regarding B1, the “stoichiometry N” value in series [1] is 2.8 ± 0.4 Skp:OmpC; in series [2] it was 3. Also, in series [3], the Kd turned out to be 1200 ± 400 nM. In addition, the binding result in series [4] and in series [5] was “binds” in each case.

B2: Skp D128C-AF647 (natural protein)
chain: T2 sequence 2 with D128C
modifications: AF647 (maleimide) on the cysteine of D128C
notes: Skp; plasmid pET28a-skp as template; source: E. coli BL21(DE3) pLysS, purified (Ni-NTA, desalting), labelled in 4 M urea; not shown: His-tag, N-terminal, kept
On to B2, for which, in series [6], the Kd came out at 0.55 nM and the “stoichiometry N” value came out at 3.
